Key:
[1] = In vitro conversion of CBD with combined glycosyl transferases (sugar-sugar linkages); assay type: biochemical
Text: The glycosyl transferases described herein can broadly be grouped into either glycosyl transferases active on the cannabinoid aglycones or glycosyl transferases active on cannabinoid glycosides. The latter group, instead of attaching a sugar moiety onto a free hydroxy group on the cannabinoid molecule, attaches a sugar moiety onto the sugar group of the cannabinoid glycoside. In Example 13 a range of glycosyl transferases were discovered that were active only on cannabinoid aglycones (e.g. PL-159(Pt88G_GA) (SEQ ID NO: 147, 148)) as well a range of glycosyl transferases which were active on both cannabinoid aglycones and cannabinoid glycosides. […] Two of these enzymes (PL-55(Sr76G1_GA) (SEQ ID NO: 123, 124) and PL-32(OsEUGT11_GA) (SEQ ID NO: 115, 116)) are described in prior art and are well known to catalyze a range of sugar on sugar reactions and were recently described as being able to perform sugar on sugar reactions on cannabinoid glycosides. […] In vitro assays were performed and analyzed as described previously. […] By comparing the LC-MS/QTOF retention time, measured mass and fragmentation pattern as well as the c Log P it could be elucidated that Sr76G1, OsEUGT11 and Si94D were catalysing sugar on sugar reactions with different linkages. […]

[2] = In vitro glycosyl transferase performance, purified enzymes, % conversion of cannabinoids to cannabinoid glycosides; assay type: biochemical
Procedure: For in vitro studies of glycosyl transferase performance in glycosylating cannabinoids, purified Glycosyl transferases were prepared as follows:
5 mL of 2× concentrated LB medium+Ampicillin (50 μg/m L) was inoculated with E. coli XJb (DE3) strains expressing a glycosyl transferase of interest and incubated overnight at 30° C. with shaking. The following day, cell cultures were transferred into 500 mL of 2× concentrated LB medium+Ampicillin (50 μg/mL) and incubated overnight at 30° C. with shaking. The following day, the cell cultures were transferred to 1 L of 2× concentrated LB medium+Ampicillin (50 μg/mL)+3 mM arabinose+0.1 mM IPTG. Cells were incubated for 24 h at 20° C. with shaking. The following day, the cells were collected by centrifugation at 46500×g for 10 mins at 4° C. Cells were resuspended in 20 mL ice-cold GT buffer (50 mM Tris-HCl pH7.4+1 mM phenylmethanesulfonyl fluoride+1 cOmplete™, mini, EDTA-free Protease Inhibitor Cocktail tablet (Roche)). The resuspended material was transferred to a 50 mL falcon tube and kept at −80° C. for at least 15 mins. Falcon tubes were then thawed at room temperature, as the tubes were thawing the following reagents were added; 2.6 mM MgCl2, 1 mM CaCl2, 250 μL of a 1.4 mg/ml DNase solution (Sigma) dissolved in MilliQ water. Tubes were gently inverted to mix then were incubated for 5 mins at 37° C. Binding buffer was then added to the tubes (50 mM Tris-HCl pH7.4, 10 mM imidazole, 500 mM NaCl. 11.25 mL MilliQ water) and the pH adjusted to 7.4 with HCl. The mix was centrifuged at 15550×g for 15 mins at 4° C., the supernatant transferred to a fresh 50 mL falcon tubes and centrifuged again to remove any remaining cellular debris at 48400×g for 20 minutes at 4° C. While the enzyme prep was centrifuging, 3 mL of HIS-Select (available from Sigma P6611) column material was added to a fresh 50 mL tube and washed by adding MilliQ water up to 50 mL, centrifuging at 2000×g for 2 mins and discarding the supernatant. This washing step was repeated. Finally, MilliQ water was added to the HIS-Select material to an approximate 50% volume. Collected supernatant from the centrifuged enzyme preparation was transferred to the tube containing the HIS-Select material through a Miracloth (available from Merck Millipore), and then incubated at 4° C. with gently shaking by inversion for 2 h. After 2 h the mix was centrifuged at 2000×g for 4 minutes at 4° C. and the supernatant discarded. The remaining HIS-Select material was washed twice with 1× binding buffer (50 mM Tris-HCl, 0.5M NaCl, 10 mM Imidazole, pH 7.4) with centrifugation at 2000×g for 4 minutes at 4° C. The HIS-Select material was resuspended in 5 mL 1× binding buffer and transferred to a Poly-Prep®Chromatography Column (available from BioRad, 7311550). The HIS-Select material was kept at 4° C. and washed twice with 1× binding buffer by filling up the column and allowing it to drip through. Finally, purified Glycosyl transferases were eluted from the HIS-Select material by adding 7.5 mL of elution buffer (50 mM Tris-HCl, 500 mM Imidazole, pH7.4) and collecting the flow through. Enzymes were used immediately in in vitro enzyme assays or stored at −20° C. in 50% glycerol until needed.
In vitro conversion of various cannabinoids to cannabinoid glycosides was carried out according to table 21. Alkaline phosphatase was provided by New England Biolabs (M0371S). Cannabinoids were dissolved in methanol. The UDP-sugar (e.g. UDP-glucose) was provided by a commercial supplier (e.g. Sigma) or produced by in vitro enzymatic conversion from a commercially available UDP-sugar as shown in Example 21.
The reaction mixture was scaled up or down as required. The reaction mixture was incubated without shaking at 30° C. for 24 hours. Extraction and analysis were performed as described above for this example. […]

[3] = In vivo bioconversion of cannabinoid substrate to glycoside in E. coli expressing glycosyl transferases; assay type: cell-based
Procedure: The Sr76G1 expression plasmid (PL-55(Sr76G1_GA (SEQ ID NO:123,124)) was also included (resulting in E. coli strain EC-55) to test whether the absence of activity observed in vitro was also observed in vivo. Strains were subsequently incubated overnight in 5 mL of LB media supplemented with ampicillin in 10 mL pre-culture tubes at 37° C. Subsequently, cells were inoculated to a starting OD600 of 0.1 in 500 μL of LB media supplemented with ampicillin in a 96 deep-well plate and incubated at 30° C. for 6 hours. A cannabinoid substrate was then dissolved in ethanol and added to the culture media along with a suitable inducing agent (IPTG) in the following final concentrations:
Cannabinoid substrate: 250 μM
Cells were cultivated with the added ethanol, cannabinoid substrate and IPTG for a further 66 hours. Cannabinoid glycosides were extracted and analyzed by HPLC analysis as described above. The decrease in cannabinoid concentration and accumulation of cannabinoid glycosides were quantified and percent conversion calculated for each glycoside. As shown in table 51 below E. coli strains expressing glycosyl transferases could convert a range of cannabinoids into their corresponding glycosides.

B1: PL-159(Pt88G_GA) (protein)
chain: MEDTIVLYPSPGRGHLFSMVELGKQILEHHPSISITIIISAMPTESISIDDPYFSTLCNTNPSITLIHLPQVSLPPNTSFSPLDFVASFFELPELNNTNLHQTLLNLSKSSNIKAFIIDFFCSAAFEFVSSRHNIPIYFFYTTCASGLSMFLHLPILDKIITKSLKDLDIIIDLPGIPKIPSKELPPAISDRSHRVYQYLVDTAKLMIKSAGLIINTFELLERKALQAIQEGKCGAPDEPVPPLFCVGPLLTTSESKSEHECLTWLDSQPTRSVLFLCFGSMGVFNSRQLRETAIGLEKSGVRFLWVVRPPLADSQTQAGRSSTPNEPCLDLLLPEGFLERTKDRGFLVNSWAPQVEILNHGSVGGFVTHCGWNSVLEALCAGVPMVAWPLYAEQRMNRIFLVEEMKVALAFREAGDDHFVNAAELEERVIELMNSKKGEAVRERVLKLREDAVVAKSDGGSSCIAMAKLVDCFKKG
[1]; substrate CBD, in vitro
  amount of CBD converted to OB1 (CBD-1′-O-β-D-glucoside) expressed as a percentage: 97.5%
[2]; glycosyl transferase in vitro, Table 24
  % conversion of CBD to OB1 (CBD-1′-O-β-D-glucoside): 97.4%
[2]; glycosyl transferase in vitro, Table 25
  % conversion of CBD to OB13 (CBD-1′-O-α-L- rhamnoside): 2.0%
[2]; glycosyl transferase in vitro, Table 26
  % conversion of CBD to OB9 (CBD-1′-O-β-D-xyloside): 12.4%
[2]; glycosyl transferase in vitro, Table 33
  % conversion of CBDV to OB24 (CBDV-1′-O-β-D-glucoside): 89.2%
[2]; glycosyl transferase in vitro, Table 37
  % conversion of CBDA to OB31 (CBDA-1′-O-β-D-glucoside): 12.0%
[2]; substrate CBG, product OB32, glycosyl transferase in vitro
  % conversion, CBG to OB32 (CBG-1′-O-β-D-glucoside): 51.9%

B2: Si94D: glycosyl transferase active on cannabinoid glycosides, SEQ ID NO: 145, 146 (protein)
chain: MDTRKRSIRILMFPWLAHGHISAFLELAKSLAKRNFVIYICSSQVNLNSISKNMSSKDSISVKLVELHIPTTILPPPYHTTNGLPPHLMSTLKRALDSARPAFSTLLQTLKPDLVLYDFLQSWASEEAESQNIPAMVFLSTGAAAISFIMYHWFETRPEEYPFPAIYFREHEYDNFCRFKSSDSGTSDQLRVSDCVKRSHDLVLIKTFRELEGQYVDFLSDLTRKRFVPVGPLVQEVGCDMENEGNDIIEWLDGKDRRSTVFSSFGSEYFLSANEIEEIAYGLELSGLNFIWVVRFPHGDEKIKIEEKLPEGFLERVEGRGLVVEGWAQQRRILSHPSVGGFLSHCGWSSVMEGVYSGVPIIAVPMHLDQPFNARLVEAVGFGEEVVRSRQGNLDRGEVARVVKKLVMGKSGEGLRRRVEELSEKMREKGEEEIDSLVEELVTVVRRRERSNLKSENSMKKLNVMMMENREGMLSENA
[1]; combined with Pt88G, CBD and UDP-glucose as substrates
  efficiency of 1-6 glucose-glucose linkage (gentiobioside) formation: 100%

B3: Sr76G1: glycosyl transferase isolated from S. rebaudiana, SEQ ID NO: 123, 124, described in prior art (protein)
chain: MDQMAKIDEKKPHVVFIPFPAQSHIKCMLKLARILHQKGLYITFINTDTNHERLVASGGTQWLENAPGFWFKTVPDGFGSAKDDGVKPTDALRELMDYLKTNFFDLFLDLVLKLEVPATCIICDGCMTFANTIRAAEKLNIPVILFWTMAACGFMAFYQAKVLKEKEIVPVKDETYLTNGYLDMEIDWIPGMKRIRLRDLPEFILATKQNYFAFEFLFETAQLADKVSHMIIHTFEELEASLVSEIKSIFPNVYTIGPLQLLLNKITQKETNNDSYSLWKEEPECVEWLNSKEPNSVVYVNFGSLAVMSLQDLVEFGWGLVNSNHYFLWIIRANLIDGKPAVMPQELKEAMNEKGFVGSWCSQEEVLNHPAVGGFLTHCGWGSIIESLSAGVPMLGWPSIGDQRANCRQMCKEWEVGMEIGKNVKRDEVEKLVRMLMEGLEGERMRKKALEWKKSATLATCCNGSSSLDVEKLANEIKKLSRN
[3]; E. coli strain EC-55
  glycosyl transferase activity in vivo: lack of activity
[2]; any cannabinoid aglycone
  glycosyltransferase activity using cannabinoid aglycones as substrate: no glycosyltransferase activity was detected

B4: Cs73Y: glycosyl transferase, SEQ ID NO: 157 (207 for the yeast codon-optimized gene) (protein)
chain: MGSEGRQLHIFMFPFMAHGHMIPIVDMAKLFASRGIKITIVTTPLNSISISKSLHNCSPNSLIQLLILKFPAAEAGLPDGCENADSIPSMDLLPKFFEAVSLLQPPFEEALHNNRPDCLISDMFFPWTNDVADRVGIPRLIFHGTSCFSLCSSEFMRLHKPYQHVSSDTEPFTIPYLPGDIKLTKMKLPIFVRENSENEFSKFITKVKESESFCYGVVVNSFYELEAEYVDCYKDVLGRKTWTIGPLSLTNTKTQEITLRGRESAIDEHECLKWLDSQKPNSVVYVCFGSLAKFNSAQLKEIAIGLEASGKKFIWVVRKGKGEEEEEEQNWLPEGYEERMEGTGLIIRGWAPQVLILDHPSVGGFVTHCGWNSTLEGVAAGVPMVTWPVGAEQFYNEKLVTEVLKTGVGVGVQKWAPGVGDFIESEAVEKAIRRIMEKEGEEMRNRAIELGKKAKWAVGEEGSSYSNLDALIEELKSLAF
[3]; E. coli, 250 μM CBN fed, to OB23
  conversion of fed cannabinoid to cannabinoid glycoside in vivo: 100%
